# Patent US20170304412A1 (YEDA RESEARCH AND DEVELOPMENT, published 2017)
# Numbering of substitutions follows the chain as printed.
# T1: TACE pro-domain R58A mutant
# T1 chain: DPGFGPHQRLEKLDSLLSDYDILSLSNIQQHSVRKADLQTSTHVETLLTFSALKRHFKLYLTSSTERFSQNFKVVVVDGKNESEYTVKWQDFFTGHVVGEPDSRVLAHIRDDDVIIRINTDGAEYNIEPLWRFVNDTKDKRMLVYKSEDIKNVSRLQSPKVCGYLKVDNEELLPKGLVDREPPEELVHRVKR
# T2: TACE pro-domain (wild type)
# T2 chain: T1 chain with A36R
# T3: MMP7 catalytic domain (UniProt P09237 95-267)
# T3 sequence (looked up): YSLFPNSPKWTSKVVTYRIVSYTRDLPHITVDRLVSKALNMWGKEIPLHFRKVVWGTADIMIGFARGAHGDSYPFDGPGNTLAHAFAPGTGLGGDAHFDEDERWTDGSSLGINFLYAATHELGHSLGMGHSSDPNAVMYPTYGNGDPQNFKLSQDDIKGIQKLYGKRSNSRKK
# B1: Furin (protein)
# chain: DVYQEPTDPKFPQQWYLSGVTQRDLNVKAAWAQGYTGHGIVVSILDDGIEKNHPDLAGNYDPGASFDVNDQDPDPQPRYTQMNDNRHGTRCAGEVAAVANNGVCGVGVAYNARIGGVRMLDGEVTDAVEARSLGLNPNHIHIYSASWGPEDDGKTVDGPARLAEEAFFRGVSQGRGGLGSIFVWASGNGGREHDSCNCDGYTNSIYTLSISSATQFGNVPWYSEACSSTLATTYSSGNQNEKQIVTTDLRQKCTESHTGTSASAPLAAGIIALTLEANKNLTWRDMQHLVVQTSKPAHLNANDWATNGVGRKVSHSYGYGLLDAGAMVALAQNWTTVAPQRKCIIDILTEPKDIGKRLEVRKTVTACLGEPNHITRLEHAQARLTLSYNRRGDLAIHLVSPMGTRSTLLAARPHDYSADGFNDWAFMTTHSWDEDPSGEWVLEIENTSEANNYGTLTKFTLVLYGTA
# B2: TACE pro-domain (wild type) (other)
# chain: T1 chain with A36R
# Tests used:
# TACE catalytic domain = TACE catalytic domain (UniProt P78536 215-477, limits assumed); assay: cell-based or functional assay
# [1] = biological target: T1, TACE pro-domain R58A mutant
# [2] = biological target: T2, TACE pro-domain (wild type)
# MMP7 catalytic domain = biological target: T3, MMP7 catalytic domain; assay: cell-based or functional assay
# MMP9 catalytic domain = MMP9 catalytic domain (UniProt P14780 107-444, limits assumed); assay: cell-based or functional assay
# MMP9 catalytic domain, sequence (P14780 107-444 limits assumed): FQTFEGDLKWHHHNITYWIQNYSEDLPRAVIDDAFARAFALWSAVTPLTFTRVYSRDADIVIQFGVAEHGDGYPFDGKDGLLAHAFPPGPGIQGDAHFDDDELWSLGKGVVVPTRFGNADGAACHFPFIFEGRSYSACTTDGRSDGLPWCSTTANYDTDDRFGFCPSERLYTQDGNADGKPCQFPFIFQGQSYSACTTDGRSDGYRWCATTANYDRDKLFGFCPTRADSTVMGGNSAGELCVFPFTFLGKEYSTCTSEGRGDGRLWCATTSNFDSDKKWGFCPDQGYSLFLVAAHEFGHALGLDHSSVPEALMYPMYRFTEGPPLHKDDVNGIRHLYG
# TACE catalytic domain, sequence (P78536 215-477 limits assumed): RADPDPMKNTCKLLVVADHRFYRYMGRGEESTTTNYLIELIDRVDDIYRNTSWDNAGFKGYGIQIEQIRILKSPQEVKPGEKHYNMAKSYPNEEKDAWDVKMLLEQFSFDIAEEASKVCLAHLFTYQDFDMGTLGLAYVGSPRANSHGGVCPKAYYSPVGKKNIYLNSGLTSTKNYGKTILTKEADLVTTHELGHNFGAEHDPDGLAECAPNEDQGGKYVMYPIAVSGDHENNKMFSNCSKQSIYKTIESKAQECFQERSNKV
Molecule,"IC50, proteolytic activity of TACE (TACE catalytic domain) [nM]",cleavage by Furin (SDS-PAGE) [1],cleavage by Furin (SDS-PAGE) [2],"IC50, catalytic activity on fluorogenic peptide (MMP7 catalytic domain) [nM]",IC50 relative to the IC50 towards TACE (MMP7 catalytic domain) [fold],"IC50, catalytic activity on fluorogenic peptide (MMP9 catalytic domain) [nM]",IC50 relative to the IC50 towards TACE (MMP9 catalytic domain) [fold],"IC50, catalytic activity on fluorogenic peptide (TACE catalytic domain) [nM]"
TACE pro-domain R58A mutant (from UniProt P78536 23-214),55,–,–,–,–,–,–,–
B1,–,pro-R58A mutant was not cleaved by Furin,Only pro-WT was processed by Furin generating a smaller fragment of ˜17kDa,–,–,–,–,–
B2,23,–,–,8790,80,4480,40,119
